The values below come from publication PMC4872748, “NG2 proteoglycan as a pericyte target for anticancer therapy by tumor vessel infarction with retargeted tissue factor” (Oncotarget, 2016).

In this test the target is T1, NG2 (nerve/glial antigen 2) proteoglycan (human (endogenous in HuAoSMC and G361), UniProt Q6UVK1 30-2322).
T1 construct: NG2 proteoglycan (CSPG4), transmembrane surface proteoglycan, endogenous on human cells; also called high-molecular melanoma associated antigen; CSPG4; source: endogenous, on human aortic smooth muscle cells (HuAoSMC) and G361-melanoma cells
T1 sequence (Q6UVK1 30-2322): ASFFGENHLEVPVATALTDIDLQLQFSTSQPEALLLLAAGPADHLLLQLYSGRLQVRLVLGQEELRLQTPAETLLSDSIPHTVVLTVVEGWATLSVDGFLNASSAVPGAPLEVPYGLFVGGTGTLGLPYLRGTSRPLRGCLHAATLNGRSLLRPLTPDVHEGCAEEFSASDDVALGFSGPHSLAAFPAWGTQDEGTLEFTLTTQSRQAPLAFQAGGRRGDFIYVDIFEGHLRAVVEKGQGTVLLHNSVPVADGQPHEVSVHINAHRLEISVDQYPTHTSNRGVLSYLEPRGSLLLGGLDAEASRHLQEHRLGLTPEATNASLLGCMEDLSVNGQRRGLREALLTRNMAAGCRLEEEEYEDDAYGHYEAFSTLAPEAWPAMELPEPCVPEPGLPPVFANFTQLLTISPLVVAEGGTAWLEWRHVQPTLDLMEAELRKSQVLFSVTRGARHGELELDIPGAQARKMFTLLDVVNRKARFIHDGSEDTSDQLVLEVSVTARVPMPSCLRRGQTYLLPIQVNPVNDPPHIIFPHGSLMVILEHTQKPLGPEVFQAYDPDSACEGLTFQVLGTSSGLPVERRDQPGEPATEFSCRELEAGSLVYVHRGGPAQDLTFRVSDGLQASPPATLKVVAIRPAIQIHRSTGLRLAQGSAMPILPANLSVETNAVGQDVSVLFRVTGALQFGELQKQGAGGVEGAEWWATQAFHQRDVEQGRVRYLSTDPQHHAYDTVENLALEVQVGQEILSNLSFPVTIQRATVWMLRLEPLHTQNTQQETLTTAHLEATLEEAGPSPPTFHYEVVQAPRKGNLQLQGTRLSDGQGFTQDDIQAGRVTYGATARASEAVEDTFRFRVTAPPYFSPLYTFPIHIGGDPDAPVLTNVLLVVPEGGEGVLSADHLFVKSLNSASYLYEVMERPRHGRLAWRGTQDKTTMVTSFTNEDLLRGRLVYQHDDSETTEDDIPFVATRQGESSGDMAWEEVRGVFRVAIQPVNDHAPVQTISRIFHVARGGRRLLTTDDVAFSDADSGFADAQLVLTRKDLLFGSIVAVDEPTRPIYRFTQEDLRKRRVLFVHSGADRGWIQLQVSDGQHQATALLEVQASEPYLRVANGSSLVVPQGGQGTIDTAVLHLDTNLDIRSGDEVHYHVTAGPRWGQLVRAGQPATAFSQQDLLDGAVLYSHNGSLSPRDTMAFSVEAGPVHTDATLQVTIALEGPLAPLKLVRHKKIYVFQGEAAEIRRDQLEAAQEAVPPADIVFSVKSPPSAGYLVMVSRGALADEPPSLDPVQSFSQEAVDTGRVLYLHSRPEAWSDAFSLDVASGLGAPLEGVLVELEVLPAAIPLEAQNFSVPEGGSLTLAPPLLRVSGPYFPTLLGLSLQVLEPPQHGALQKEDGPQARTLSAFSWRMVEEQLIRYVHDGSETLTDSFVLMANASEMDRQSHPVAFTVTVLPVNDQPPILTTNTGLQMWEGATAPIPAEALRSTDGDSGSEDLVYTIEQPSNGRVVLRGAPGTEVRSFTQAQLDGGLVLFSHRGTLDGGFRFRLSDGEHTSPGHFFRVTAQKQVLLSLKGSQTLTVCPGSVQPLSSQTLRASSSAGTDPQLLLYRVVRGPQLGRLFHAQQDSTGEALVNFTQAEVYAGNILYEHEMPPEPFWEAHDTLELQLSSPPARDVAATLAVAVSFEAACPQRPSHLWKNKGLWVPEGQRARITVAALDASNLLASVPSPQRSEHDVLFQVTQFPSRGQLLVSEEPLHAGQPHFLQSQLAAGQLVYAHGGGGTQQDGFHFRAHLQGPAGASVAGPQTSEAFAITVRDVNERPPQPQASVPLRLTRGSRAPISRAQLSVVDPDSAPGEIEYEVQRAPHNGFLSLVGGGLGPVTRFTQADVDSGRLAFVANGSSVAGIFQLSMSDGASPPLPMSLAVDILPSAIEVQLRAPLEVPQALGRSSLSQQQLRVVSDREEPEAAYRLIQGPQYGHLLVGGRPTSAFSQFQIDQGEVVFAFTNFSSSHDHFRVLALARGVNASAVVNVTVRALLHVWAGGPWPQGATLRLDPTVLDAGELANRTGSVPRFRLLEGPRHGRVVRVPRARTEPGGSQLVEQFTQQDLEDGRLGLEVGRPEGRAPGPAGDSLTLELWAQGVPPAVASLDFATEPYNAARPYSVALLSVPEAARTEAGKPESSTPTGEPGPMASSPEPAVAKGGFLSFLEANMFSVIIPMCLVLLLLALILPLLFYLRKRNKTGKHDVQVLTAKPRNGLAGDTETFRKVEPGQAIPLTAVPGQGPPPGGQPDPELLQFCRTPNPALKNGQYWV
The test can be described thus: radioligand binding; increasing concentrations of 123I-tTF-TAA on cultivated HuAoSMC, gamma counter; nonlinear fit of total binding (GraphPad Prism 6: one site - total binding), an approximation. The following applies: one partner purified.

B1: 123I-tTF218-TAA (other)
chain: SGTTNTVAAYNLTWKSTNFKTILEWEPKPVNQVYTVQISTKSGDWKSKCFYTTDTECDLTDEIVKDVKQTYLARVFSYPAGNVESTGSAGEPLYENSPEFTPYLETNLGQPTIQSFEQVGTKVNVTVEDERTLVRRNNTFLSLRDVFGKDLIYTLYYWKSSSSGKKTAKTNTNEFLIDVDKGENYCFSVQAVIPSRTVNRKSTDSPVECMGQEKGEFRTAASGVRSMH
modifications: 123I (iodinated; residues not stated)
By Kd is commonly meant the concentration at which binding is half-saturated. Higher therefore signals weaker binding. For B1, the Kd was approximately 785 nM.
